Data set [1] concerns the target T1, Smad1 full length (UniProt Q15797 Q15797:1-465). The data set is described as follows: pulldown; excess yeast tRNA. The conditions noted are these: tags: GST fusion, E. coli. How it is done: (§1) To examine the interaction of SMAD proteins with double stranded CAGAC sequences of miRNA we performed RNA pull down experiments. Gst-Smad fusion proteins were expressed in E. coli and partially purified. As a proof of principal, we used mature miR-21 sequences (see below). ssRNA oligonucleotides were annealed to make dsRNA. GST-Pull down experiments were performed using the standard methods including aspects of those disclosed herein in the presence of excess amount of non-specific RNAa (yeast tRNAs). Full length GST-SMAD1 fusion protein and a GST-SMAD1 N-terminal (n219) MH1 domain interact with double stranded CAGAC sequences of miR-21
(§2) In vitro GST-SMAD-RNA pull down assay: GST-smad fusion proteins were expressed in E. coli, isolated and bound to glutathione S-sepharose beads. Following partial purification, Smad bound beads were washed 4×5 min at 4° C. in wash buffer (10 mM Tris-HCl pH 7.6, 0.5M LiCl, 0.1% triton) and 1×10 at 4° C. in binding buffer (20 mM Tris-HCl pH 7.6, 0.1M KCl, 0.1% Tween-20, 0.1% Triton). […] RNA was re-suspended in 20 μl water and 1 μl was used in a reverse transcriptase reaction followed by quantitative real time PCR to detect relative levels of RNA binding to Smad-GST fusion proteins.

Data set [2] has as its target T2, Smad1 MH1 domain (UniProt Q15797 Q15797:1-219). The data set is described as follows: pulldown; excess yeast tRNA. The conditions noted are these: tags: GST fusion, E. coli. How it is done: as §1, §2
Data set [3] concerns the target T3, Smad3 full length (UniProt P84022 P84022:1-425). In words: pulldown. The conditions noted are these: tags: GST fusion, E. coli. How it is done:
(§3) In vitro GST-SMAD-RNA pull down assay: GST-smad fusion proteins were expressed in E. coli, isolated and bound to glutathione S-sepharose beads. Following partial purification, Smad bound beads were washed 4×5 min at 4° C. in wash buffer (10 mM Tris-HCl pH 7.6, 0.5M LiCl, 0.1% triton) and 1×10 at 4° C. in binding buffer (20 mM Tris-HCl pH 7.6, 0.1M KCl, 0.1% Tween-20, 0.1% Triton). Beads were resuspended in 100 ul binding buffer and pre-incubated with 25 ug tRNA, 1 ng poly-[dI-dC] and 2 μl RNAse inhibitor for 10 minutes before the addition of 10 pmoles synthesized mature miRNA or ˜20 pmoles in vitro transcribed 156 by pri-miR-21. Following 1 hr incubation with rocking at 4° C., beads were washed 4× with binding buffer. 2 consecutive elutions of bound RNA were performed by addition of 100 ul Elution buffer (1% SDS, 0.15M NaCl) followed by rocking at room temperature for 15 min. The eluates were combined, […] Trizol-LS (Invitrogen) was added and the RNA was purified as usual. RNA was re-suspended in 20 μl water and 1 μl was used in a reverse transcriptase reaction followed by quantitative real time PCR to detect relative levels of RNA binding to Smad-GST fusion proteins.

For another data set, the target named is Smad4 full length (UniProt Q13485 Q13485:1-552). In words: pulldown. The conditions noted are these: tags: GST fusion, E. coli. How it is done:
as §3

Data set [4] addresses T2, Smad1 MH1 domain. The data set is described as follows: pulldown; MH1 sufficient. As to conditions: tags: GST fusion, E. coli. The procedure: as §3
Data set [5] concerns the target T1, Smad1 full length. In words: pulldown; tRNA and poly dI-dC, 0.1 M KCl, 4 C. The conditions noted are these: tags: GST fusion, E. coli. How it is done:
as §3

The target in data set [6] is T3, Smad3 full length. The data set is described as follows: pulldown; control duplex without CAGAC. The conditions noted are these: tags: GST fusion, E. coli. How it is done:
as §3

In data set [7] the target is T1, Smad1 full length. In words: pulldown; control duplex without CAGAC. The conditions noted are these: tags: GST fusion, E. coli. The procedure: as §3
The target of data set [8] is T2, Smad1 MH1 domain. In words: pulldown; specific for miR-21 duplex. As to conditions: tags: GST fusion, E. coli. How it is done: as §3
The next data set concerns the target Smad1 (UniProt Q15797 Q15797:1-465). In words: RNA-ChIP. The conditions noted are these: tags: Flag, Cos7; hairpin with flanks. The procedure:
RNA-ChIP. Was performed as previously described [Fukuda, T. et al., Nat Cell Biol 9, 604-611 (2007)]. Briefly, PASMCs or Cos7 cells were crosslinked for 15 minutes with 1% formaldehyde, the cell pellet was resuspended in Buffer A (5 mM PIPES, pH 8.0, 85 mM KCl, 0.5% Nonidet P-40). After 10 min on ice, the crude nuclei fraction was isolated by centrifugation, and then suspended in Buffer B (1% SDS, 10 mM EDTA, 50 mM Tris-HCl, pH 8.1). After nuclei were disrupted by sonication, the lysates were cleared and subjected to immunoprecipitation with anti-Flag, anti-Smad1/5/8, Smad2/3, or p68 antibody, prior to stringent washing, and elution. The RNA was isolated using Trizol (invitrogen). Pellets were resuspended in 100 μl TE and incubated with DNase I (10 U) for 30 min at 37° C. to remove any remaining DNA. Following extraction with phenol:chloroform (5:1), RNA was precipitated with ethanol and dissolved in 20 μl of water. […] of RNA was used for a 20 μl cDNA synthesis reaction. Quantitative PCR reactions were then performed by real-time PCR machine (iQ5, Bio-Rad). Average of three experiments each performed in triplicate with standard errors are presented.

T1 sequence (Q15797 whole entry, the tested form may be a part, one chain of several): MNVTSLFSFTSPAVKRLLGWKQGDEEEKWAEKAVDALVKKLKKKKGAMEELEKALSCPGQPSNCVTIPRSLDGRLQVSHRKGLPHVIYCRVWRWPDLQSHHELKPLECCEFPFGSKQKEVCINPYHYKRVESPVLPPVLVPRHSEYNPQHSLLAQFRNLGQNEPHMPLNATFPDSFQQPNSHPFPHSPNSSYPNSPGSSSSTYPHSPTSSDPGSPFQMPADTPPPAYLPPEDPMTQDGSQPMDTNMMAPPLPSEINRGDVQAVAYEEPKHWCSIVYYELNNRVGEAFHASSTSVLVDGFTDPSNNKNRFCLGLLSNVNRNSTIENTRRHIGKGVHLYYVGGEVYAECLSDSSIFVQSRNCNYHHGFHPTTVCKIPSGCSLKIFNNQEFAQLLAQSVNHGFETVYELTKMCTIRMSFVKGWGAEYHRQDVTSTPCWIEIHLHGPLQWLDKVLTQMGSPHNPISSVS
T2 sequence (Q15797 1-219, one chain of several): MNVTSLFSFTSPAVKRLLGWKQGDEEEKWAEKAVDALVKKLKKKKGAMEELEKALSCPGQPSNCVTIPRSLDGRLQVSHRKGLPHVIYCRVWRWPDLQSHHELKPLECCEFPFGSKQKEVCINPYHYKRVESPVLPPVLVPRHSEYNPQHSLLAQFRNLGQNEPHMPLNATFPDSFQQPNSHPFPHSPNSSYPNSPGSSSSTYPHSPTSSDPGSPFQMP
T3 sequence (P84022 whole entry, the tested form may be a part, one chain of several): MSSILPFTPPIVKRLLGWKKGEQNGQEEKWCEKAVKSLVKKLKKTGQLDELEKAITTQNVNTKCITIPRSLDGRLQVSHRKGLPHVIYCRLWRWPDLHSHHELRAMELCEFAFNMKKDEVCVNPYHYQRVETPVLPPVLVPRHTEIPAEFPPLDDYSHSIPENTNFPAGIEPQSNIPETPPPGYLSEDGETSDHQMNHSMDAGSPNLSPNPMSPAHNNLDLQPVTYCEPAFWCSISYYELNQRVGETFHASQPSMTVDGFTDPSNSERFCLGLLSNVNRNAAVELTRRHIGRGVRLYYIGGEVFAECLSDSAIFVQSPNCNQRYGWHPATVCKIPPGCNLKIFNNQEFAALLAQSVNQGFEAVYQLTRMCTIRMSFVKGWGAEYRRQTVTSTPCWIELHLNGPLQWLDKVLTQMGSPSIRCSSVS
Sequence of Smad4 full length (Q13485 whole entry, the tested form may be a part, one chain of several): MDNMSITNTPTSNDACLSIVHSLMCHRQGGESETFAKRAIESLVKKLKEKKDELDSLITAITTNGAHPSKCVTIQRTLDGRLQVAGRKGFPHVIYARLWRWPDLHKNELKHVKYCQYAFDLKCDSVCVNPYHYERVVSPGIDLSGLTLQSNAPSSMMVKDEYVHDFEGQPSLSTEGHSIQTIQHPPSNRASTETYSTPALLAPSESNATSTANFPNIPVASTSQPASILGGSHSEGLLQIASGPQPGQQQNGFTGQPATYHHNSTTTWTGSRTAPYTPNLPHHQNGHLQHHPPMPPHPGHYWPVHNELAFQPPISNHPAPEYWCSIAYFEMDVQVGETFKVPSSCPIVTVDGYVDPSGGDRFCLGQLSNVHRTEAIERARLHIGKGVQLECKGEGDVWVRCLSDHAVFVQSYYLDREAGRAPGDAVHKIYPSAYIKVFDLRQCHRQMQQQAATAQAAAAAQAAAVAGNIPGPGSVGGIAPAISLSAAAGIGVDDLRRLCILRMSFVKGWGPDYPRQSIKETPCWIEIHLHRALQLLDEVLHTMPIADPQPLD
Sequence of Smad1 (Q15797 whole entry, one chain of several): as the sequence (Q15797 whole entry, the tested form may be a part, one chain of several) above

B1: miR-21 duplex (annealed oligos) (dsRNA)
RNA 1: UAGCUUAUCAGACUGAUGUUGA
RNA 2: UCAACAUCAGUCUGAUAAGCUA
On to B1, for which the binding result with Smad1 full length [1] and with Smad1 MH1 domain [2] was “binds” each time.

B2: miR-21 RNA duplex (dsRNA)
RNA 1: UAGCUUAUCAGACUGAUGUUGA
RNA 2: UCAACAUCAGUCUGAUAAGCUA
Regarding B2, the binding result with Smad3 full length [3] is “binds”; with Smad4 full length, “no binding”; with Smad1 MH1 domain [4], “binds”; with Smad1 full length [5], “binds”.

B3: cel-miR-67 RNA duplex (dsRNA)
RNA 1: UCACAACCUCCUAGAAAGAGUAGA
RNA 2: UCUACUCUUUCUAGGAGGUUGUGA
For the molecule B3, the binding result with Smad4 full length, with Smad3 full length [6], with Smad1 full length [7] and in the data set with Smad1 MH1 domain [8] was “no binding” throughout.

B4: pri-miR-21 from pCMV-miR-21 (480 nt; hairpin sequence given) (ssRNA)
RNA: UGUCGGGUAGCUUAUCAGACUGAUGUUGACUGUUGAAUCUCAUGGCAACACCAGUCGAUGGGCUGUCUGACA
The molecule B4 showed a binding signal with Smad1 of 3 fold induction by BMP4.

The values are drawn from US20110152352, “SMAD PROTEINS CONTROL DROSHA-MEDIATED MIRNA MATURATION” (Tufts University, published 2011).
